Data reported in US20250019737A1 (TECHNOLOGY INNOVATION MOMENTUM FUND ISRAEL LIMITED …, published 2025).

Target: T1, Ubiquitin R42E, R72E, untagged free mono-Ub (Homo sapiens (Human), UniProt P0CG47 1-76)
T1 construct: also called Ub R42E, R72E
Assay: SPR, immobilized His6-MBP-ENTH on Ni2+ chip, Ub mutant as analyte, single-site model

fold lower affinity than the wild-type complex: ~2.6 fold
B1: His6-MBP-ENTH, ENTH domain of yeast Ent1(1-152) (other, yeast (Saccharomyces cerevisiae), UniProt Q12518 1-152, looked up, not shown: small tags and cut ends; large carriers)
chain: MSKQFVRSAKNLVKGYSSTQVLVRNATSNDNHQVSKDSLIELAEKSYDSADFFEIMDMLDKRLNDKGKYWRHIAKALTVIDYLIRFGSENCVLWCRENLYIIKTLKEFRHEDDEGIDQGQIVRVKAKELTALLSDDERLNEERNMNIKGRNR
notes: range 1-152; also called yeast ENTH
